# Key:
# Assay in all cases: FP filter
# [1] = system: TZ05 DNA polymerase (Thermus species Z05); conditions: 55C
# [2] = molecular target: Taq DNA polymerase (Thermus aquaticus) (UniProt P19821)
# [3] = molecular target: Tth DNA polymerase (Thermus thermophilus) (UniProt P52028)
# Chain of Tth DNA polymerase (Thermus thermophilus) (P52028 whole entry): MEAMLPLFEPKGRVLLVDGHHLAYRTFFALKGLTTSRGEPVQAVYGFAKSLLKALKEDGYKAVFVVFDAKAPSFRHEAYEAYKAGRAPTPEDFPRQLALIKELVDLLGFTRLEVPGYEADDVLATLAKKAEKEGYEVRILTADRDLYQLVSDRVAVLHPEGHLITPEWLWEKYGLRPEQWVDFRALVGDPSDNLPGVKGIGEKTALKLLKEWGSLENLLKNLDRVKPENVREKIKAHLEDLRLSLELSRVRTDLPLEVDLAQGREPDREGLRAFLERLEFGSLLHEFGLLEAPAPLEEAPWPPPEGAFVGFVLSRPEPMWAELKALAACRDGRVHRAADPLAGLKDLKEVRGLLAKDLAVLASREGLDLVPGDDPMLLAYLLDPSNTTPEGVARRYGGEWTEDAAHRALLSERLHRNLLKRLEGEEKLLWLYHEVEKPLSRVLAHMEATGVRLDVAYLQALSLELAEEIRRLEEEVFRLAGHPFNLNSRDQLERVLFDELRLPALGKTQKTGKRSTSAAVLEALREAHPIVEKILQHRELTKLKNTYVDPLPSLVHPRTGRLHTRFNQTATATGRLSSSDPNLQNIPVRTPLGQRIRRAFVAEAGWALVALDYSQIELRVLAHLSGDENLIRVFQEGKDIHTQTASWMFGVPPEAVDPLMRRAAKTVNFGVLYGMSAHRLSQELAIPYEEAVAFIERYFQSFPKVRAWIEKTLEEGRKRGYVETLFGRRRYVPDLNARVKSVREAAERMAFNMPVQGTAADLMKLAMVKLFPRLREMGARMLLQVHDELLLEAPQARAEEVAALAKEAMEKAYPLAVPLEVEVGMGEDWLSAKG
# Chain of Taq DNA polymerase (Thermus aquaticus) (P19821 whole entry): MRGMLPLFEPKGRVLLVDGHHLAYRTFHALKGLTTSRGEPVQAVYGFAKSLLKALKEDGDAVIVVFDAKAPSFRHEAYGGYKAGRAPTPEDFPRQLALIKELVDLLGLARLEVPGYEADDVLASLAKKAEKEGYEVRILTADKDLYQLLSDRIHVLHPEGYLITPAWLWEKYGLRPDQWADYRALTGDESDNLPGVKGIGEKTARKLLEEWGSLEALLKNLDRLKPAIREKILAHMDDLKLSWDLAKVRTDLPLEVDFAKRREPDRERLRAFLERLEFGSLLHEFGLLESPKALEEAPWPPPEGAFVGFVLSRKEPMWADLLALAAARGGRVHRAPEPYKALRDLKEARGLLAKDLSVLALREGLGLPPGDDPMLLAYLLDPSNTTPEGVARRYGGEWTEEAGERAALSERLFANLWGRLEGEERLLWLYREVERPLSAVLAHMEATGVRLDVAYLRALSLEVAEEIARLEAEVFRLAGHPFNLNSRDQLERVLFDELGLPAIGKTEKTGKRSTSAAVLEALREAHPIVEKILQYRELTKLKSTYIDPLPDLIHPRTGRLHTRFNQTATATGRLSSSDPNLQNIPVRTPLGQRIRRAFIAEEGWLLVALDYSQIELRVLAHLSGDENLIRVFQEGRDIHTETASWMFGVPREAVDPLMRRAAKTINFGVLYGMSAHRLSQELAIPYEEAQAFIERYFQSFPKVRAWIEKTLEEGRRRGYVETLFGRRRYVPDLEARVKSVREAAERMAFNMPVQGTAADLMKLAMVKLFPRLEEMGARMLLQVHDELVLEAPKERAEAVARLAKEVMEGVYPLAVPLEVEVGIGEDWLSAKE
sequence,measurement,setting,value
TTCTCGGTTGGTCTCTGGCGGAGCACACCGGGGGGGCTGCGGGCAAGGCGGGTGTCTTGTGTATGATTCGCTTTTCCC [TZ1],Kd,[1]; IT50 52.5C,0.016 nM
TTCTCGGTTGGTCTCTGGCGGAGCACGGGAGGGTGTGGAGTGGGTGGCGCGGGCTCTTGTGTATGATTCGCTTTTCCC [TZ36],Kd,[1]; IT50 51C,0.02 nM
TTCTCGGTTGGTCTCTGGCGGAGCACGTCGGGGGGGCCCTGGGGACGGGCAGGCGTCTTGTGTATGATTCGCTTTTCCC [TZ26],Kd,"[1]; printed as >>500, IT50 41C",> 0.5 nM
TTCTCGGTTGGTCTCTGGCGGAGCACGTCGGGGGGGCGTTGGGACGGGCAGACGTCTTGTGTATGATTCGCTTTTCCC [TZ13],Kd,[1]; IT50 58.5C,0.017 nM
TTCTCGGTTGGTCTCTGGCGGAGCATACACGACGTCATTCTAGCGTTTTGACGTCTTGTGTATGATTCGCTTTTCCC [ligand 22 (TQH22) / TZ3],Kd,"[1]; as TZ3, IT50 52C",0.009 nM
TTCTCGGTTGGTCTCTGGCGGAGCGAACATACGAAGACATTCCAACGTTTTGTCTTGTGTATGATTCGCTTTTCCC [TZ69],Kd,[1]; IT50 46C,0.02 nM
TTCTCGGTTGGTCTCTGGCGGAGCGAAGCATACGAAGACATTCCAACGTTTTGTCTTGTGTATGATTCGCTTTTCCC [TZ8],Kd,[1]; IT50 52C,0.005 nM
TTCTCGGTTGGTCTCTGGCGGAGCGAAGCATACGAAGACATTCCAACGTTTTGTCTTGTGTATGATTCGCTTTTCCC [TZ54],Kd,[1]; IT50 52C,0.023 nM
TTCTCGGTTGGTCTCTGGCGGAGCGCGAGGGTGTGGCGTGGGTGGCGCGATCTTGTGTATGATTCGCTTTTCCC [TZ2],Kd,"[1]; printed as >>1000, IT50 <<35C",> 1 nM
TTCTCGGTTGGTCTCTGGCGGAGCGGATCAGACACGAGACATTGCGGACTTTTGTCTTGTGTATGATTCGCTTTTCCC [TZ9],Kd,[1]; IT50 52C,0.005 nM
TTCTCGGTTGGTCTCTGGCGGAGCNNNNNNNNNNNNNNNNNNNNNNNNNNNNNNTCTTGTGTATGATTCGCTTTTCCC [enriched Taq pool round 12],Kd,"[2]; Taq binding buffer, room temp",3.5 nM
same,Kd,"[3]; cross binding, room temp",0.2 nM
TTCTCGGTTGGTCTCTGGCGGAGCNNNNNNNNNNNNNNNNNNNNNNNNNNNNNNTCTTGTGTATGATTCGCTTTTCCC [enriched Tth pool round 10],Kd,"[2]; cross binding, saturates at about 50%",0.3 nM
same,Kd,"[3]; Tth binding buffer, room temp",5 nM
TTCTCGGTTGGTCTCTGGCGGAGCNNNNNNNNNNNNNNNNNNNNNNNNNNNNNNTCTTGTGTATGATTCGCTTTTCCC [random ssDNA pool],Kd,"[3]; 50 mM Bicine pH 8.3, 90 mM KCl, 3.5 mM Mn(OAc)2, room temp",70 nM

# From patent US6183967
